Like-named read-outs stand apart in the source and are kept apart here.
What was measured:
[1] = molecular target: T1, Human VPAC1 Receptor (Homo sapiens, UniProt P32241); test: Filter binding assay, 125I-labeled VIP, membranes of cells transiently transfected with human VPAC1; details: 125I-labeled VIP tracer
T1 construct: expressed in transfected cells
T1 sequence (P32241 31-457): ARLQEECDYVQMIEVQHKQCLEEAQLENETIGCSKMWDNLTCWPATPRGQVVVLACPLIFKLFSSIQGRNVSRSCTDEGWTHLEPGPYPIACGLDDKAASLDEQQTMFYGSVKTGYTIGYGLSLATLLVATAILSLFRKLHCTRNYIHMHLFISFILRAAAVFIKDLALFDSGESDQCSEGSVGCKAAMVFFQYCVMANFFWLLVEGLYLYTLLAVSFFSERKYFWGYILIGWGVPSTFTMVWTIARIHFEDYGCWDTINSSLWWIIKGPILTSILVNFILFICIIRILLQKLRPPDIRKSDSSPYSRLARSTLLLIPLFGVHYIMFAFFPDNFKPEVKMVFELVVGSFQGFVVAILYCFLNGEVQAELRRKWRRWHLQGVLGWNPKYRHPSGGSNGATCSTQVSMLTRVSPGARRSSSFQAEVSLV
Procedure: (§1) For this assay, the solutions and equipment include:
(§2) Presoak solution: 0.5% Polyethyleneamine in Aqua dest
(§3) Buffer for flushing filter plates: 25 mM HEPES pH 7.4
(§4) Blocking buffer: 25 mM HEPES pH 7.4; 0.2% protease free BSA
(§5) Assay buffer: 25 mM HEPES pH 7.4; 0.5% protease free BSA
(§6) Dilution and assay plate: PS-Microplate, U form
(§7) Filtration Plate Multiscreen FB Opaque Plate; […] Type B Glasfiber filter
(§8) In order to prepare the filter plates, the presoak solution is aspirated by vacuum filtration. The plates are flushed twice with 200 μL flush buffer. 200 μL blocking buffer is added to the filter plate. The filter plate is then incubated with 200 μL presoak solution for 1 hour at room temperature.
(§9) The assay plate is filled with 25 μL assay buffer, 25 μL membranes (2.5 μg) suspended in assay buffer, 25 μL agonist in assay buffer, and 25 μL tracer (about 40000 cpm) in assay buffer. The filled plate is incubated for 1 hour with shaking.
(§10) The transfer from assay plate to filter plate is conducted. The blocking buffer is aspirated by vacuum filtration and washed two times with flush buffer. 90 μL is transferred from the assay plate to the filter plate. The 90 μL transferred from assay plate is aspirated and washed three times with 200 μL flush buffer. The plastic support is removed. It is dried for 1 hour at 60° C. 30 μL Microscint is added. The count is performed.

[2] = molecular target: T2, Human PAC1 Receptor (Homo sapiens, UniProt P41586); test: Filter binding assay, 125I-labeled PACAP-27, membranes of cells transiently transfected with human PAC1
T2 construct: expressed in transfected cells
T2 sequence (P41586 21-468): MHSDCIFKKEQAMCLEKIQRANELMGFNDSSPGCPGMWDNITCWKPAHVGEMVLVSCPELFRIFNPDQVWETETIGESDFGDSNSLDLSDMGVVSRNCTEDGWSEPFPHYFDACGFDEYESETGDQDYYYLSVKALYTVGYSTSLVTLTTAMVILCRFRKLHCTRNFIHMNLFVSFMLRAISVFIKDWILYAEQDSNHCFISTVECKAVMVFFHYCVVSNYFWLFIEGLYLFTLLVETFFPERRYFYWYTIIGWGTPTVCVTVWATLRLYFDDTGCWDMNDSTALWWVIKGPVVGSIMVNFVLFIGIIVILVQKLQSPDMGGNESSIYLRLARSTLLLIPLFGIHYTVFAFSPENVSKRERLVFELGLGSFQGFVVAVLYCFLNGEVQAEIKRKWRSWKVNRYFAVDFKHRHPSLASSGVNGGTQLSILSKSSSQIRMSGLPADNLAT
Procedure: as §1, §2, §3, §4, §5, §6, §7, §8, §9, §10

[3] = Pharmacokinetic profiles of PEGylated peptides in Fisher 344 rats; format: in vivo, rat; details: 100 μg agonist/kg, plasma RIA, mean N = 3
Procedure: Pharmacokinetic profiles of PEGylated peptides. Healthy Fisher 344 rats (3 animals per group) were injected with 100 μg agonist/kg (agonist amount based on peptide content and dissolved in PBS buffer). Blood samples were drawn 3, 12, 24, 48, 72, 96 and 168 hour post dosing and the peptide content in plasma was analysed by a radio-immunoassay (RIA) directed against the N-terminus of the peptide. PK parameters were then calculated using a model-independent method (WinNonlin Pro, Pharsight Corp., Mountain View, Calif., USA).

[4] = Rat serum stability study (DiscoveRx cAMP read-out on CHO-VPAC2 cells); details: 24 h in rat serum at 37° C.; EC50, 4° C./EC50, 37° C.; values >100% may represent release of intact peptide from the PEG conjugate
Procedure: In order to determine the stability of VPAC2 receptor peptide agonists in rat serum, CHO-VPAC2 cells clone #6 (96 well plates/50,000 cells/well and 1 day culture), PBS 1× (Gibco), the peptides for the analysis in a 100 μM stock solution, rat serum from a sacrificed normal Wistar rat, aprotinin, and a DiscoveRx assay kit are obtained. The rat serum is stored at 4° C. until use and is used within two weeks.
The aliquot is stored with aprotinin at 4° C. The aliquot is stored without aprotinin at 37° C. The aliquots are incubated for 24 or 72 hours.
On Day 1, after incubation of the aliquots prepared on day 0 for 24 or 72 hours, an incubation buffer containing PBS+1.3 mM CaCl2, 1.2 mM MgCl2, 2 mM glucose, and 0.25 mM IBMX is prepared. A plate with 11 serial 5× dilutions of peptide for the 4° C. and 37° C. aliquot is prepared for each peptide studied. […] The plate(s) are washed with cells twice in incubation buffer. The plates are allowed to hold 50 μL incubation media per well for 15 minutes. 50 μL solution per well is transferred to the cells from the plate prepared with 11 serial 5× dilutions of peptide for the 4° C. and 37° C. aliquot for each peptide studied, using the maximal concentrations that are indicated by the primary screen, in duplicate. This step dilutes the peptide concentration by a factor of two. The cells are incubated at room temperature for 30 minutes. The supernatant is removed. 40 μL/well of the DiscoveRx antibody/extraction buffer is added. The cells are incubated on the shaker (300 rpm) for 1 hour. Normal procedure with the DiscoveRx kit is followed. cAMP standards are included in column 12. EC50 values are determined from the cAMP assay data.

| Compound | IC50 [1] [nM] | IC50 ([2]; 125I-labeled PACAP-27 tracer) [nM] | AUC0-last [3] [ng·h/mL] | Cl/F [3] [mL/min/kg] | Cmax [3] [ng/mL] | Tmax [3] [h] | T½ [3] [h] | 24 h stab (%) [4] [%] | IC50 [2] [nM] |
| --- | --- | --- | --- | --- | --- | --- | --- | --- | --- |
| C6-HSDAVFTEQY(OMe)TOrnLRAibQLAbuAAibOrnYLQSIOrnOrnGGPSSGAPPPC(PEG20K)C(PEG20K)-NH2 (HSDAVFTEQYTXLRXQLXAXXYLQSIXXGGPSSGAPPPCC; C6 acyl, non-natural residues, two PEG20K, C-terminal amide; Synthetic sequence PEGylated VPAC2 receptor agonist) [Agonist P590] | > 25000 | > 25000 | – | – | – | – | – | – | – |
| C6-HSDAVFTEQY(OMe)TOrnLRAibQLAAbuAibOrnYLQSIOrnC(PEG20K)OrnGGPSSGAPPPC(PEG20K)-NH2 (HSDAVFTEQYTXLRXQLAXXXYLQSIXCXGGPSSGAPPPC; C6 acyl, two PEG20K, C-terminal amide; Synthetic sequence PEGylated VPAC2 receptor agonist) [Agonist P555] | > 25000 | > 25000 | 4918 | 0.333 | 102 | 16 | 13 | 117 | – |
| C6-HSDAVFTEQY(OMe)TOrnLRAibQVAAAibOrnYLQSIOrnOrnC(PEG20K)GGPSSGAPPPC(PEG20K)NH2 (HSDAVFTEQYTXLRXQVAAXXYLQSIXXCGGPSSGAPPPC; C6 acyl, two PEG20K, C-terminal amide; Synthetic sequence PEGylated VPAC2 receptor agonist) [Agonist P562] | > 25000 | > 25000 | 5456 | 0.317 | 120 | 24 | 25 | 213 | – |
| C6-HSDAVFTEQY(OMe)TOrnLRAibQC(PEG40K)AAbuAibOrnYLQAibIOrnOrnGGPSSGAPPPS-NH2 (HSDAVFTEQYTXLRXQCAXXXYLQXIXXGGPSSGAPPPS; C6 acyl, PEG40K on Cys, C-terminal amide; Synthetic sequence PEGylated VPAC2 receptor agonist) [Agonist P545] | > 25000 | > 25000 | 12737 | 0.12 | 139 | 72 | 43 | – | – |
| C6-HSDAVFTEQY(OMe)TOrnLRAibQLAAbuAibOrnY(OMe)LQAibIOrnOrnGGPSSGAPPPC(PEG20K)C(PEG20K)-NH2 (HSDAVFTEQYTXLRXQLAXXXYLQXIXXGGPSSGAPPPCC; C6 acyl, non-natural residues, two PEG20K, C-terminal amide; Synthetic sequence PEGylated VPAC2 receptor agonist) [Agonist P574] | > 25000 | > 25000 | 3408 | 0.467 | 70 | 20 | 18 | 288 | – |
| C6-HSDAVFTEQY(OMe)TOrnLRAibQLAAbuAibOrnYLQSIOrnOrnC(PEG20K)GGPSSGAPPPC(PEG20K)-NH2 (HSDAVFTEQYTXLRXQLAXXXYLQSIXXCGGPSSGAPPPC; C6 acyl, two PEG20K, C-terminal amide; Synthetic sequence PEGylated VPAC2 receptor agonist) [Agonist P572] | > 25000 | > 25000 | – | – | – | – | – | – | – |
| C6-HSDAVFTEQY(OMe)TOrnLRAibQLAAbuAibOrnYLQAibIOrnC(PEG40K)OrnGGPSSGAPPPS-NH2 (HSDAVFTEQYTXLRXQLAXXXYLQXIXCXGGPSSGAPPPS; C6 acyl, PEG40K on Cys, C-terminal amide; Synthetic sequence PEGylated VPAC2 receptor agonist) [Agonist P537] | > 25000 | > 25000 | – | – | – | – | – | – | – |
| C6-HSDAVFTEQY(OMe)TOrnLRAibQLAAbuAibOrnYLQAibIOrnOrnC(PEG20K)GGPSSGAPPPC(PEG20K)-NH2 (HSDAVFTEQYTXLRXQLAXXXYLQXIXXCGGPSSGAPPPC; C6 acyl, non-natural residues, two PEG20K, C-terminal amide; Synthetic sequence PEGylated VPAC2 receptor agonist) [Agonist P580] | > 25000 | > 25000 | – | – | – | – | – | – | – |
| CC[C@H](C)[C@H](NC(=O)[C@H](CO)NC(=O)[C@H](CC(N)=O)NC(=O)[C@H](CC(C)C)NC(=O)[C@H](Cc1ccc(O)cc1)NC(=O)[C@H](CCCCN)NC(=O)[C@H](CCCCN)NC(=O)[C@@H](NC(=O)[C@H](C)NC(=O)[C@H](CCSC)NC(=O)[C@H](CCC(N)=O)NC(=O)[C@H](CCCCN)NC(=O)[C@H](CCCN=C(N)N)NC(=O)[C@H](CC(C)C)NC(=O)[C@H](CCCN=C(N)N)NC(=O)[C@@H](NC(=O)[C@H](Cc1ccc(O)cc1)NC(=O)[C@H](CC(N)=O)NC(=O)[C@H](CC(=O)O)NC(=O)[C@@H](NC(=O)[C@H](Cc1ccccc1)NC(=O)[C@@H](NC(=O)[C@H](C)NC(=O)[C@H](CC(=O)O)NC(=O)[C@H](CO)NC(=O)[C@@H](N)Cc1cnc[nH]1)C(C)C)[C@@H](C)O)[C@@H](C)O)C(C)C)C(=O)N[C@@H](CC(C)C)C(=O)N[C@@H](CC(N)=O)C(=O)O [VIP, reference compound] | – | – | – | – | – | – | – | 0.2 | > 1000 |
| C6-HSDAVFTEQY(OMe)TOrnLRAibQLAAbuAibOrnY(OMe)LQSIOrnOrnGGPSSGAPPPC(PEG20K)C(PEG20K)-NH2 (HSDAVFTEQYTXLRXQLAXXXYLQSIXXGGPSSGAPPPCC; C6 acyl, non-natural residues, two PEG20K, C-terminal amide; Synthetic sequence PEGylated VPAC2 receptor agonist) [Agonist P582] | > 25000 | > 25000 | – | – | – | – | – | – | – |
| C6-HSDAYFTEQY(OMe)TOrnLRAibQLAAbuAibOrnYLQSIOrnK(CO(CH2)2SPEG20K)OrnGGPSSGAPPPC(PEG20K)-NH2 [Agonist P551] | > 25000 | > 25000 | – | – | – | – | – | – | – |
| C6-HSDAVFTEQY(OMe)TOrnLRAibQLAAbuAibOrnYLQAibIOrnC(PEG20K)OrnGGPSSGAPPPC(PEG20K)-NH2 (HSDAVFTEQYTXLRXQLAXXXYLQXIXCXGGPSSGAPPPC; C6 acyl, two PEG20K, C-terminal amide; Synthetic sequence PEGylated VPAC2 receptor agonist) [Agonist P553] | > 25000 | > 25000 | – | – | – | – | – | – | – |
